Test system: Saccharomyces cerevisiae
Test: transcriptional activation domain activity (GFP:mCherry ratio, weighted mean of sorted bins, harmonized to initial dataset scale) (arbitrary fluorescence ratio units); higher = stronger transcriptional activation
Details: beta-estradiol 1 µM; induction time 4 h
Protocol: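 53-aa protein tiles (fungal proteins plus yeast TF control tiles) fused C-terminally to a DBD-estrogen-binding domain-mCherry synthetic TF, integrated in S. cerevisiae (URA3 locus) with a GFP reporter. Cells were induced with 1 uM beta-estradiol for 4 h at 30 C, FACS-sorted into 8 bins by GFP:mCherry ratio and barcodes sequenced. Activity is the read-weighted mean bin fluorescence (GFP:mCherry), averaged over barcodes (median 12); tiles under 50 reads were discarded. New active-learning values were harmonized by linear fit onto the scale of the initial (Hummel et al.) dataset. The assay saturates at low and high signal.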

Sequence | transcriptional activation domain activity
CLIVARVVTVVFPFNFCFYFFVERILISVPVVCVCEVCVLEWCVWLRFLFACA | 32000
CLLGTGSFWGLVYISLAYMDGFAFKYLLQFHHIIKLLWISTVGGLIMIAFWSF | 52900
CLLICIEYLTLSSLLDINVLLTTIVLHSLSLSSNLEVVRVVRRFFWVRCINLL | 47200
CLLLAICCLYHVAFCIIVVLFWVAQVNAAPMEALQMVLAHVRYTFILSVSMVG | 63500
CLMVVFLIVQLLVITVARRCRKTDARFVLERVFLKTHLGLYVFCLLITNFASG | 50200
CLRVRGVLILTIERLLNDFADAEYRKYAKAILHCHQPYPNSSDCYCQILRSLV | 36900
CLRYSLLLVSLGLGAEGSPPFLILFPWTPILLARFYCIGWWVRFGFIFVRLWP | 63200
CLTQGLGICRDAENPEVNPDTATGEEGDVRTRCFQRDSLKDQVIVLAFLIITT | 28900
CLVIRGRSRFQHGPFWLGSFGLLCNIVLLSWTLFSLVFFSFPFVKPIIPGKPF | 76900
CLYVHQQLRESLGLGWLRQDTFFNYTRDRICVWNLNRKYSAFSTITSTVTHVR | 39700
CMELMLHYIYVVAISNSSPDWSAYTPFQLSMLGYFNLHHIWLKLLIPWRFFRL | 80500
CMIFGRWACGPALLAVIYAILGVGFAFALVVTRSFASKSYGDRLQFRLRHFFF | 39600
CMLRFVIWLCSKCVPYRSGVWEEFKFLLDHPRRCFTLLFPSSANWWLFWVLIL | 59700
CMLRFVIWLCSKWVPYRSGVWEEFKFLLDHPRRCFTLLFPSGANWWLFWVLIL | 60600
CNICVLLCQIIEVASLVEQRDTIELIKTRYLNRLKLMKPDDVLQTYVSTLLNA | 32400
CNVLCYGYNVVLLVMKLYVKRVFVSPRGVRQPLVLAPYEHTLYIRFSCQPITD | 29300
CNVLFYLELVRALVLLHRWDLNTWMLQYSTKTMPPIQPTPLDDFVKYITTFPG | 42800
CPACLSVCTYYLRCLLCSAALYTMGLLAFWWRFLFWHDCILLWSLSLFPFTLS | 87400
CPELYQTHLQITGIITIDTYFSFNDYDAWVQLRDVLDLWLGRAWVFNVVIWKY | 61500
CPFLKCTVYLRTIKHYLFVLVFLPLDALFSIALSCYALSYARVLVVPLALSIF | 53700
CPQPLIYCKPCKILQTQYDRLHINHMTFNMISHHLYRGLLPLLVVVCLLGKIV | 62100
CPSFPSSFFVWVFEPRVAVPNLLGIIYLFCLVSHLPSSLFILSGTLLPLIVCL | 61300
CPVHTTLHVPHFLIWSSHILFFFLVFFFVFSLFPFPLVCLVAFFLVLSALPPS | 42700
CPYYPMICPSFLPLLLVLLFSLYLFLSSPLDFFLPLDFLIHTHNCTFLRTKGQ | 40000
CQRQWADRVQMTLRQMYDLLLIEITRPRYSVFLTSGHSMEEMASVFRLIACIA | 44400
CQWWKYLMERLLLLPPLVRVQIILLLFAFVIPKLHLHAHTLACQLVFSLNFLL | 51200
CRESRGNRGTGEGGAGEQGKGEQGKGEQGKGEQGNRGRGSRETGEGGAGKQGN | 29800

Sequence | transcriptional activation domain activity
CRGFGFWVRVLLGICGVCGVVALRTYAIYHVFQLNLPSRGLRFYLPLLFYIAC | 57100
CRGIYTLHTTNLMIVDDIVYLWRYDRQNVIQSTGLNFITDMPYFMALLAVFQR | 48500
CRLLSSSVFLFSFFPFFLFFFYCLLVFFAWFLILRGCFVVHCLCKFGYDWTGG | 30300
CRLYRLGFFVFLLVLSGLSFLSFYQVYRLFYFLLLFLFFSLFVFFSFCLILYF | 57400
CSCSAGTRTSSSASSSAWRGASSSSSSRCSATRSSIARSRRTRSSCCARTRTC | 36200
CSNIAEQADQCDFVKSYCDGFSGYYLMLYYCSPFWRPISIFILLSCLLMLFGA | 30700
CSNIGAQKNQCEFVQLNCHGFNALYLELFYCSKLWKPIIIAILLSCLLMLFGA | 42200
CTVVFLACTVVYGFMVVTSLLFHLSGFLFHVTTTFPFFFFFFFTLLFFLLHTF | 38000
CTYVRESIKQFNGTYSKALEVRQRSIQFLGQRTKLCWYWLMLRYHLSTLMLVD | 39700
CVCRMILAPLLHLFISFFLLCMAAVASPPLRWILWYYWGCFTVQEVNWHMLRF | 45500
CVCVGVGIGVGGLVLPLLFFLSFTSFSSLVTFLFSLSFPFSFFLFFLSFFLGL | 46000
CVFDMPCLWYGVYLVWFGVFSYLLLWCFALGAYYSSTVWSILWLIAAGSWCRQ | 73300
CVFLSILCLFIHLLLIVSLLLFFCHCLFFSVPITLVCFSMTIHLTPKIFILLF | 52700
CVFRLGFLFIFLVSYSIAWEWFFLFSLWHLCLLPLDIISIFLLFLGPLLWRSF | 31500
CVGFANYCHFIRFLVYVGLGAIYLMVLLGCRLSSILYHPASATEWVLLGLNLF | 63000
CVGLLCLLDTLHLCFSIHMMYFYLIHNFGNVKAVFDIIWSLKGLGTVQVLLIW | 45200
CVRVLCISFSLTLSSSCLLVGIVLRWSLCCLLYFVCVPLHLDTLLSFSSIPTL | 50600
CVWVYTEIFPEFVWLLIFKLLKSMPEMTRRTGIVVIRSLVSCGIQIGDTFTHK | 50600
CWILGFISVFTFAYLVLTVLPNLYLNCPYSTPLSELSWRLSQHLLLLILHLIR | 69500
CWVVWGRRWLIVLLPIICLITATVSKVLQVYLVNSNAYMLYEVFLMLYISFVL | 44100
CWWPFGIPVYMFFHAPETVHYSYFLFFFLSLSLPAMLNIYLVIFIVSWLKSVP | 38200
CYFLLLLHLPCYRFLFLFLLWLLGQVSHFFLLSHHLIILFWGFVILYSYYIST | 63000
CYNLNLVFNWIIRCIISIFLVFMISFLPLFLQELVECGTWKAIWCLMKQFTSL | 35400
CYVLRDVFFCTVFFAFAGSIEALLQSGFCGYFPLTSTWQIVLLRALMWMTYWW | 51000
CYWKAKAPPYVLPMLILSKRLHSIFVLRCFNDCFAVLFLWLAILCLQRRSWQL | 67900
DAAAAAAAKKKKQQQQQQQEKEEEAKKEKASSASSASRASSISAHKASVSAAK | 19700
DAAAEKSGNDVSEKSSGPRAKRRKVDPELDTVDEEPKKQRSKKRVKVSVPNGI | 45800

Sequence | transcriptional activation domain activity
DAAKPAQGLFGGALAAGKSGETPKPAGSLFGAPSSSTKTGEEAKPAGGLFGAG | 26100
DAARGGYQSAGGAGTGSDSETNRGRGRGGRGGFRGERGGRGRGRGATPAKTEG | 27200
DADEAEGAPDAAGEGAAKKKKKRKPRKKKKGGAGGGGGGGPKVQTSPPRVPIH | 11400
DADGNPTGDGEPPKKRRRRQALSCTECKRRKIKCDRNHPCSPCARRGDGQKCQ | 13000
DADMIVRLALKARLRWLLPKLTWLRIYFDGLYSNGDVLRVLILPKLLHLLIMC | 66000
DADSAQVAGECVVCQDEEANVVIVECGYVSLIIHLTLHRFIVLASLVISHYAQ | 63900
DAESDNEEGAAGAADKKKKKKKKGASTAATSTPAEDEAAAAKGKKKPAAPLAA | 53700
DAEYMCQYHGSLIGKHFKSLAQVMPFVIYGLVHEDVLHAWNIIGTLLVLLWHT | 33500
DAFADGDGDATVTEGETSEKPKKARKKRAKKDTGEDDAEAKPKKKAKRKAKAA | 14500
DAGSGGGEVRRAGGSGILKESGTFGDCRCLSRYASAASLRVHVLLCWENALSA | 40400
DAKSGTSGGLFGSAAPASSTAPNSSGAATAGASSTTTTAPAGGLFGAKPAAAS | < 6570
DALGLRRPSLYYKALVAGQCIFFMALCYTYRMIPYLDQKKIKTLKKVFFRIII | 68800
DANASSSSTSSTQANNYIDFHWNNIKPELRDLICQSYKDFLINELGPDQIDLP | 51100
DANDGRRTLLVVLGDHGMTAAGNHGGASAGETSAALVLASPLFSTVASAPARR | < 6570
DAPAQPEPADDGEEAEEVDEPKGKKGKGGGKKGGGKGKGGKGKEKKADKAAAE | 29400
DAPEKEPEAEAAKPKGRGGRPKKVVPPAAAAPAPKEKEEPKPKAAAGRKRKAP | 32100
DAPPQKGDRKAEVQDGENGDEVGQDPKGKDKGGRGRGRGGRGRGGAARGGATA | 36600
DARRLLSCVRMGFAFYASGCMSTSLILFFSFCLLLPPILTGYQILWLLCIILP | 68400
DATPAAPANGNDGFHEVQHRGRGRGGFQGEGRGGGGYRGRGGRGGEGRGRGRG | 25800
DAYLLWGPGFIPTVCHIHDFPLLLPVAIFLVYINLSSCHLDPLISFLFLPLFG | 66500
DCDIAQQQRFGAMFDDLLKSRETYFLRCSLSTWEIEHDVWWPFYLRSLEWCYF | 50000
DCDLTCDTPCTASTSATSGHKFVQDHQSSNNDDVFHKYCKFCEESTDNQPCSK | 58300
DCSSILFSPLTTNTNNEFEGESDDFVHSPYLNSEADFSQILSSAPPVHHDPNE | 72800
DDAAADLQEAQAGASKKNRKRNRKKNAQDGPAEEATPSKGARQGKKGKGWRET | 12000
DDADGKARSRRKDYSDDERGDTRRSRRDEHRSSKEHRSRTVKEGENDRRKAHR | < 6570

— the supplement of paper PMC12636428
